For experiment [1], the target named is His-Gαi3. Description: cell-based or functional assay.
Experiment [2] concerns the target T1, GST (alone) (UniProt P08515 1-218 = GST).
T1 construct: Negative control on glutathione beads
As to the kind of experiment: GST pulldown, GIV-CT pAb blot (FIG. 20B). Here is the method:
Equal aliquots (˜3 μg) of His-GIV-CT were incubated with ˜30 ug of GST and ˜25 μg GST-SHP-1 immobilized on glutathione beads. Bound His-GIV-CT was analyzed by immunoblotting (IB) with GIV-CT pAb. Relative amounts of bead-bound GST and GST-SHP-1 were confirmed by ponceau S staining. (B) His-GIV-CT preferentially binds the C-terminal SH2 domain of SHP-1. Equal aliquots (˜3 μg) of His-GIV-CT were incubated with ˜30 μg GST, wild-type GST-SHP-1, GST-SHP-1 lacking both SH2 domains (ΔN+CSH2), and GST-SHP-1 lacking only the N-terminal SH2 domain (ΔNSH2). Bound His-GIV-CT was analyzed by immunoblotting (IB) with GIV-CT pAb. His-GIV-CT specifically bound wild-type GST-SHP-1, but not GST alone (lanes 3, 4); binding was reduced in the absence of both SH2 domains (lane 5), but restored when the C-terminal SH2 domain was present (lane 6).
To determine if the GIV-SHP-1 interaction observed in vivo is direct, in vitro binding assays were carried out using recombinant His-GIV-CT and GST or GST-SHP-1 immobilized on glutathione beads. […] Because SHP-1 is recruited to its substrates by one or both of its in-tandem SH2 domains (30), whether the SH2 domains, and if so, which one (NSH2 or CSH2) is responsible for mediating the direct interaction of SHP-1 with GIV's C-terminus was assessed. […]

In experiment [3] the target is T1, GST (alone). Description: GST pulldown with a panel of GST-tagged SH2 adaptors (FIG. 4A). Here is the method: FIG. 4 illustrates that GIV interacts with p85α via its phosphorylated C-terminus. […] Mock-treated GIV-CT and in vitro EGFR-phosphorylated pY GIV-CT were incubated with ˜35 μg of the indicated GST-SH2 adaptors or GST immobilized on glutathione beads. Bound His-GIV-CT was analyzed by immunoblotting (IB) with anti-His mAb. pY GIV-CT, but not GIV-CT specifically bound the C-terminal SH2 domain of p85α (lane 3), and weakly to the N-terminal SH2 domain of p85α (lane 2). […] Mock-treated GIV-CT and in vitro EGFR or Src-phosphorylated (pY GIV-CT) His-GIV-CT were incubated with ˜35 μg of GST-p85α-CSH2 adaptor or GST immobilized on glutathione beads. Bound His-GIV CT was analyzed by immunoblotting (IB) with anti-His mAb. GIV CT bound p85α-CSH2 exclusively after phosphorylation by EGFR and Src-kinases (lanes 3, 4), but not when sham-treated (lane 2). […] HeLa cells were starved (0 min), and subsequently stimulated with EGF for indicated time periods prior to lysis. Equal aliquots of lysates (bottom) were incubated with anti-GIV (CT Ab; lanes 1-3) or a mix (M) of them was incubated with pre-immune IgG Immune complexes (top) were analyzed for the presence of endogenous GIV, phosphotyrosine (pTyr) and p85α by immunoblotting (IB). […] Equal aliquots of lysates (bottom) were treated with anti-GIVCT Ab or preimmune IgG Immunoprecipitated complexes (top) were analyzed for GIV and p85α by immunoblotting (IB). […]

In experiment [4] the target is endogenous SHP-1 of HEK cells (UniProt P29350 1-595). Description: anti-SHP-1 co-immunoprecipitation from HEK lysates (FIG. 26). Here is the method: Equal aliquots of HEK lysates (bottom) were incubated with either rabbit preimmune (lane 1) or anti-SHP-1 (lane 2) IgGs, and protein A agarose beads. Lysates and immune complexes (top) were analyzed for GIV, SHP-1, and Gαi3 by immunoblotting (IB). SHP-1 was immunoprecipitated efficiently and specifically by anti-SHP-1 (lane 2), but not control (lane 1) IgG. GIV, but not Gαi3 was detected in SHP-1-bound protein complexes (lane 2).
Chain of endogenous SHP-1 of HEK cells (P29350 whole entry): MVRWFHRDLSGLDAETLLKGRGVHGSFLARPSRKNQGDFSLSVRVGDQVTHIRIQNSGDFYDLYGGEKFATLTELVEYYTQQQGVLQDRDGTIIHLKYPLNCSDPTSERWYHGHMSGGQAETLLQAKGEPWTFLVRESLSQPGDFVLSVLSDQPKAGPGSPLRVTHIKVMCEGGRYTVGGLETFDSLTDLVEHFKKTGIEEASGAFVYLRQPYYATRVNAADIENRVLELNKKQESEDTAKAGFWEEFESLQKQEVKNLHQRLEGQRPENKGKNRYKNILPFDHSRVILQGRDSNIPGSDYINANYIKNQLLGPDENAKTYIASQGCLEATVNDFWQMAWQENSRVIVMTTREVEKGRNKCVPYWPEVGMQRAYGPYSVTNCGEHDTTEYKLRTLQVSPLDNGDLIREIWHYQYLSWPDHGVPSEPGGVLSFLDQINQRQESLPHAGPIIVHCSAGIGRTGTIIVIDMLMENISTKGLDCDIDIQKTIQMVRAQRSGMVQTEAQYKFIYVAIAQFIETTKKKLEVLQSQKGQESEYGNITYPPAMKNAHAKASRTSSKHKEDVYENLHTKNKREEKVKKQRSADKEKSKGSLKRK

T1 sequence (P08515 whole entry): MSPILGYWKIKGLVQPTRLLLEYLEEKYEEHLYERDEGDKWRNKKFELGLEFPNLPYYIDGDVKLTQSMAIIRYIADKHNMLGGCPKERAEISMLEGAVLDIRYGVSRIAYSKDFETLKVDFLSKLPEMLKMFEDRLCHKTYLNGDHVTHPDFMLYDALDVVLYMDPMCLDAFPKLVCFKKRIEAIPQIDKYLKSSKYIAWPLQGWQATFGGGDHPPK

B1: His-GIV-CT (aa 1660-1870), wild-type, not phosphorylated (mock- or sham-treated) (other)
chain: SETLESRHHKIKTGSPGSEVVTLQQFLEESNKLTSVQIKSSSQENLLDEVMKSLSVSSDFLGKDKPVSCGLARSVSGKTPGDFYDRRTTKPEFLRPGPRKTEDTYFISSAGKPTPGTQGKIKLVKESSLSRQSKDSNPYATLPRASSVISTAEGTTRRTSIHDFLTKDSRLPISVDSPPAAADSNTTAASNVDKVQESRNSKSRSREQQSS
notes: Expressed in E. coli; also called mock-WT; mock-treated GIV-CT; not shown: hexahistidine (6xHis) tag of pET28b
As to B1, the “steady-state GTPase activity of His-Gαi3” value in experiment [1] was ~1.7 fold over the basal activity. In addition, the binding result in experiment [2] is on record as “no binding (tested: ˜3 µg His-GIV-CT, ˜30 µg GST)”.

B2: His-GIV-CT (aa 1660-1870), wild-type, phosphorylated in vitro by recombinant EGFR kinase (other)
chain: SETLESRHHKIKTGSPGSEVVTLQQFLEESNKLTSVQIKSSSQENLLDEVMKSLSVSSDFLGKDKPVSCGLARSVSGKTPGDFYDRRTTKPEFLRPGPRKTEDTYFISSAGKPTPGTQGKIKLVKESSLSRQSKDSNPYATLPRASSVISTAEGTTRRTSIHDFLTKDSRLPISVDSPPAAADSNTTAASNVDKVQESRNSKSRSREQQSS
modifications: phosphotyrosine at Y1764 and Y1798 (sites found by mass spectrometry after EGFR kinase; EGFR prefers Y1764)
notes: also called pY GIV-CT; pY GIV-CT (EGFR); not shown: hexahistidine (6xHis) tag of pET28b
Consider B2, for which, in experiment [1], the “steady-state GTPase activity of His-Gαi3” value is ~1.7 fold over the basal activity. In addition, the binding result in experiment [3] is listed as “no binding”.

B3: endogenous Gαi3 of HEK cells (other, UniProt P08754 2-354, looked up)
chain: GCTLSAEDKAAVERSKMIDRNLREDGEKAAKEVKLLLLGAGESGKSTIVKQMKIIHEDGYSEDECKQYKVVVYSNTIQSIIAIIRAMGRLKIDFGEAARADDARQLFVLAGSAEEGVMTPELAGVIKRLWRDGGVQACFSRSREYQLNDSASYYLNDLDRISQSNYIPTQQDVLRTRVKTTGIVETHFTFKDLYFKMFDVGGQRSERKKWIHCFEGVTAIIFCVALSDYDLVLAEDEEMNRMHESMKLFDSICNNKWFTETSIILFLNKKDLFEEKIKRSPLTICYPEYTGSNTYEEAAAYIQCQFEDLNRRKDTKEIYTHFTCATDTKNVQFVFDAVTDVIIKNNLKECGLY
For the molecule B3, the binding result in experiment [4] is given as “no binding”.

Values taken from patent US20140234872A1 (University of California, published 2014).
